According to patent US20210388087A1 (Chugai, published 2021):

B1: H183/L072 VL L33Q (antibody, name in Kabat numbering, V domains shown)
VH: QVQLVESGGGLVQPGRSLRLSCAASGFTFSNAWMHWVRQAPGKGLEWVAQIKDKGNAYAAYYAPSVKGRFTISRDDSKNSIYLQMNSLKTEDTAVYYCHYVHYASASTVLPAFGVDAWGQGTTVTVSS
VL: DIVMTQSPLSLPVTPGEPASISCQASQELVHMNRNTYQHWYQQKPGQAPRLLIYKVSNRFPGVPDRFSGSGSGTDFTLKISRVEAEDVGVYYCAQGTSVPFTFGQGTKLEIK
B2: H183/L072 VL L33S (antibody, name in Kabat numbering, V domains shown)
VH: QVQLVESGGGLVQPGRSLRLSCAASGFTFSNAWMHWVRQAPGKGLEWVAQIKDKGNAYAAYYAPSVKGRFTISRDDSKNSIYLQMNSLKTEDTAVYYCHYVHYASASTVLPAFGVDAWGQGTTVTVSS
VL: DIVMTQSPLSLPVTPGEPASISCQASQELVHMNRNTYSHWYQQKPGQAPRLLIYKVSNRFPGVPDRFSGSGSGTDFTLKISRVEAEDVGVYYCAQGTSVPFTFGQGTKLEIK
B3: H183/L072 VL L33T (antibody, name in Kabat numbering, V domains shown)
VH: QVQLVESGGGLVQPGRSLRLSCAASGFTFSNAWMHWVRQAPGKGLEWVAQIKDKGNAYAAYYAPSVKGRFTISRDDSKNSIYLQMNSLKTEDTAVYYCHYVHYASASTVLPAFGVDAWGQGTTVTVSS
VL: DIVMTQSPLSLPVTPGEPASISCQASQELVHMNRNTYTHWYQQKPGQAPRLLIYKVSNRFPGVPDRFSGSGSGTDFTLKISRVEAEDVGVYYCAQGTSVPFTFGQGTKLEIK
B4: H183/L072 VL L33V (antibody, name in Kabat numbering, V domains shown)
VH: QVQLVESGGGLVQPGRSLRLSCAASGFTFSNAWMHWVRQAPGKGLEWVAQIKDKGNAYAAYYAPSVKGRFTISRDDSKNSIYLQMNSLKTEDTAVYYCHYVHYASASTVLPAFGVDAWGQGTTVTVSS
VL: DIVMTQSPLSLPVTPGEPASISCQASQELVHMNRNTYVHWYQQKPGQAPRLLIYKVSNRFPGVPDRFSGSGSGTDFTLKISRVEAEDVGVYYCAQGTSVPFTFGQGTKLEIK
B5: H183/L072 VL M27eA (antibody, name in Kabat numbering, V domains shown)
VH: QVQLVESGGGLVQPGRSLRLSCAASGFTFSNAWMHWVRQAPGKGLEWVAQIKDKGNAYAAYYAPSVKGRFTISRDDSKNSIYLQMNSLKTEDTAVYYCHYVHYASASTVLPAFGVDAWGQGTTVTVSS
VL: DIVMTQSPLSLPVTPGEPASISCQASQELVHANRNTYLHWYQQKPGQAPRLLIYKVSNRFPGVPDRFSGSGSGTDFTLKISRVEAEDVGVYYCAQGTSVPFTFGQGTKLEIK
B6: H183/L072 VL M27eD (antibody, name in Kabat numbering, V domains shown)
VH: QVQLVESGGGLVQPGRSLRLSCAASGFTFSNAWMHWVRQAPGKGLEWVAQIKDKGNAYAAYYAPSVKGRFTISRDDSKNSIYLQMNSLKTEDTAVYYCHYVHYASASTVLPAFGVDAWGQGTTVTVSS
VL: DIVMTQSPLSLPVTPGEPASISCQASQELVHDNRNTYLHWYQQKPGQAPRLLIYKVSNRFPGVPDRFSGSGSGTDFTLKISRVEAEDVGVYYCAQGTSVPFTFGQGTKLEIK
B7: H183/L072 VL M27eE (antibody, name in Kabat numbering, V domains shown)
VH: QVQLVESGGGLVQPGRSLRLSCAASGFTFSNAWMHWVRQAPGKGLEWVAQIKDKGNAYAAYYAPSVKGRFTISRDDSKNSIYLQMNSLKTEDTAVYYCHYVHYASASTVLPAFGVDAWGQGTTVTVSS
VL: DIVMTQSPLSLPVTPGEPASISCQASQELVHENRNTYLHWYQQKPGQAPRLLIYKVSNRFPGVPDRFSGSGSGTDFTLKISRVEAEDVGVYYCAQGTSVPFTFGQGTKLEIK
B8: H183/L072 VL M27eF (antibody, name in Kabat numbering, V domains shown)
VH: QVQLVESGGGLVQPGRSLRLSCAASGFTFSNAWMHWVRQAPGKGLEWVAQIKDKGNAYAAYYAPSVKGRFTISRDDSKNSIYLQMNSLKTEDTAVYYCHYVHYASASTVLPAFGVDAWGQGTTVTVSS
VL: DIVMTQSPLSLPVTPGEPASISCQASQELVHFNRNTYLHWYQQKPGQAPRLLIYKVSNRFPGVPDRFSGSGSGTDFTLKISRVEAEDVGVYYCAQGTSVPFTFGQGTKLEIK
B9: H183/L072 VL M27eG (antibody, name in Kabat numbering, V domains shown)
VH: QVQLVESGGGLVQPGRSLRLSCAASGFTFSNAWMHWVRQAPGKGLEWVAQIKDKGNAYAAYYAPSVKGRFTISRDDSKNSIYLQMNSLKTEDTAVYYCHYVHYASASTVLPAFGVDAWGQGTTVTVSS
VL: DIVMTQSPLSLPVTPGEPASISCQASQELVHGNRNTYLHWYQQKPGQAPRLLIYKVSNRFPGVPDRFSGSGSGTDFTLKISRVEAEDVGVYYCAQGTSVPFTFGQGTKLEIK
B10: H183/L072 VL M27eH (antibody, name in Kabat numbering, V domains shown)
VH: QVQLVESGGGLVQPGRSLRLSCAASGFTFSNAWMHWVRQAPGKGLEWVAQIKDKGNAYAAYYAPSVKGRFTISRDDSKNSIYLQMNSLKTEDTAVYYCHYVHYASASTVLPAFGVDAWGQGTTVTVSS
VL: DIVMTQSPLSLPVTPGEPASISCQASQELVHHNRNTYLHWYQQKPGQAPRLLIYKVSNRFPGVPDRFSGSGSGTDFTLKISRVEAEDVGVYYCAQGTSVPFTFGQGTKLEIK
B11: H183/L072 VL M27eI (antibody, name in Kabat numbering, V domains shown)
VH: QVQLVESGGGLVQPGRSLRLSCAASGFTFSNAWMHWVRQAPGKGLEWVAQIKDKGNAYAAYYAPSVKGRFTISRDDSKNSIYLQMNSLKTEDTAVYYCHYVHYASASTVLPAFGVDAWGQGTTVTVSS
VL: DIVMTQSPLSLPVTPGEPASISCQASQELVHINRNTYLHWYQQKPGQAPRLLIYKVSNRFPGVPDRFSGSGSGTDFTLKISRVEAEDVGVYYCAQGTSVPFTFGQGTKLEIK
B12: H183/L072 VL M27eK (antibody, name in Kabat numbering, V domains shown)
VH: QVQLVESGGGLVQPGRSLRLSCAASGFTFSNAWMHWVRQAPGKGLEWVAQIKDKGNAYAAYYAPSVKGRFTISRDDSKNSIYLQMNSLKTEDTAVYYCHYVHYASASTVLPAFGVDAWGQGTTVTVSS
VL: DIVMTQSPLSLPVTPGEPASISCQASQELVHKNRNTYLHWYQQKPGQAPRLLIYKVSNRFPGVPDRFSGSGSGTDFTLKISRVEAEDVGVYYCAQGTSVPFTFGQGTKLEIK
B13: H183/L072 VL M27eL (antibody, name in Kabat numbering, V domains shown)
VH: QVQLVESGGGLVQPGRSLRLSCAASGFTFSNAWMHWVRQAPGKGLEWVAQIKDKGNAYAAYYAPSVKGRFTISRDDSKNSIYLQMNSLKTEDTAVYYCHYVHYASASTVLPAFGVDAWGQGTTVTVSS
VL: DIVMTQSPLSLPVTPGEPASISCQASQELVHLNRNTYLHWYQQKPGQAPRLLIYKVSNRFPGVPDRFSGSGSGTDFTLKISRVEAEDVGVYYCAQGTSVPFTFGQGTKLEIK
B14: H183/L072 VL M27eN (antibody, name in Kabat numbering, V domains shown)
VH: QVQLVESGGGLVQPGRSLRLSCAASGFTFSNAWMHWVRQAPGKGLEWVAQIKDKGNAYAAYYAPSVKGRFTISRDDSKNSIYLQMNSLKTEDTAVYYCHYVHYASASTVLPAFGVDAWGQGTTVTVSS
VL: DIVMTQSPLSLPVTPGEPASISCQASQELVHNNRNTYLHWYQQKPGQAPRLLIYKVSNRFPGVPDRFSGSGSGTDFTLKISRVEAEDVGVYYCAQGTSVPFTFGQGTKLEIK
B15: H183/L072 VL M27eP (antibody, name in Kabat numbering, V domains shown)
VH: QVQLVESGGGLVQPGRSLRLSCAASGFTFSNAWMHWVRQAPGKGLEWVAQIKDKGNAYAAYYAPSVKGRFTISRDDSKNSIYLQMNSLKTEDTAVYYCHYVHYASASTVLPAFGVDAWGQGTTVTVSS
VL: DIVMTQSPLSLPVTPGEPASISCQASQELVHPNRNTYLHWYQQKPGQAPRLLIYKVSNRFPGVPDRFSGSGSGTDFTLKISRVEAEDVGVYYCAQGTSVPFTFGQGTKLEIK
B16: H183/L072 VL M27eQ (antibody, name in Kabat numbering, V domains shown)
VH: QVQLVESGGGLVQPGRSLRLSCAASGFTFSNAWMHWVRQAPGKGLEWVAQIKDKGNAYAAYYAPSVKGRFTISRDDSKNSIYLQMNSLKTEDTAVYYCHYVHYASASTVLPAFGVDAWGQGTTVTVSS
VL: DIVMTQSPLSLPVTPGEPASISCQASQELVHQNRNTYLHWYQQKPGQAPRLLIYKVSNRFPGVPDRFSGSGSGTDFTLKISRVEAEDVGVYYCAQGTSVPFTFGQGTKLEIK
B17: H183/L072 VL M27eR (antibody, name in Kabat numbering, V domains shown)
VH: QVQLVESGGGLVQPGRSLRLSCAASGFTFSNAWMHWVRQAPGKGLEWVAQIKDKGNAYAAYYAPSVKGRFTISRDDSKNSIYLQMNSLKTEDTAVYYCHYVHYASASTVLPAFGVDAWGQGTTVTVSS
VL: DIVMTQSPLSLPVTPGEPASISCQASQELVHRNRNTYLHWYQQKPGQAPRLLIYKVSNRFPGVPDRFSGSGSGTDFTLKISRVEAEDVGVYYCAQGTSVPFTFGQGTKLEIK
B18: H183/L072 VL M27eS (antibody, name in Kabat numbering, V domains shown)
VH: QVQLVESGGGLVQPGRSLRLSCAASGFTFSNAWMHWVRQAPGKGLEWVAQIKDKGNAYAAYYAPSVKGRFTISRDDSKNSIYLQMNSLKTEDTAVYYCHYVHYASASTVLPAFGVDAWGQGTTVTVSS
VL: DIVMTQSPLSLPVTPGEPASISCQASQELVHSNRNTYLHWYQQKPGQAPRLLIYKVSNRFPGVPDRFSGSGSGTDFTLKISRVEAEDVGVYYCAQGTSVPFTFGQGTKLEIK
B19: H183/L072 VL M27eT (antibody, name in Kabat numbering, V domains shown)
VH: QVQLVESGGGLVQPGRSLRLSCAASGFTFSNAWMHWVRQAPGKGLEWVAQIKDKGNAYAAYYAPSVKGRFTISRDDSKNSIYLQMNSLKTEDTAVYYCHYVHYASASTVLPAFGVDAWGQGTTVTVSS
VL: DIVMTQSPLSLPVTPGEPASISCQASQELVHTNRNTYLHWYQQKPGQAPRLLIYKVSNRFPGVPDRFSGSGSGTDFTLKISRVEAEDVGVYYCAQGTSVPFTFGQGTKLEIK
B20: H183/L072 VL M27eV (antibody, name in Kabat numbering, V domains shown)
VH: QVQLVESGGGLVQPGRSLRLSCAASGFTFSNAWMHWVRQAPGKGLEWVAQIKDKGNAYAAYYAPSVKGRFTISRDDSKNSIYLQMNSLKTEDTAVYYCHYVHYASASTVLPAFGVDAWGQGTTVTVSS
VL: DIVMTQSPLSLPVTPGEPASISCQASQELVHVNRNTYLHWYQQKPGQAPRLLIYKVSNRFPGVPDRFSGSGSGTDFTLKISRVEAEDVGVYYCAQGTSVPFTFGQGTKLEIK

Target: T1, Human CD3eg linker (human)
T1 construct: Single-chain construct; also called recombinant human CD3
T1 chain: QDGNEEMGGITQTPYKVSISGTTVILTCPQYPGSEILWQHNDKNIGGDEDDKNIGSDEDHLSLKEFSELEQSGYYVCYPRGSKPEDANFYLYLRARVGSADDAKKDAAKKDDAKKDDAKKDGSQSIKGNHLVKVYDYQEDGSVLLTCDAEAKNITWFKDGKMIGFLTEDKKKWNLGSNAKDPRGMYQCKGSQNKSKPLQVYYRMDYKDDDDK
Experiment: SPR; fold vs parent H183/L072

In order of rising “fold change of affinity” value:
1. B2  0 fold
2. B3  0.3 fold
3. B4  0.4 fold
4. B6  0.8 fold
5. B20  0.8 fold
6. B8  0.9 fold
7. B9  0.9 fold
8. B10  0.9 fold
9. B11  0.9 fold
10. B14  0.9 fold
11. B7  1 fold
12. B13  1 fold
13. B16  1.1 fold
14. B15  1.2 fold
15. B18  1.2 fold
16. B19  1.2 fold
17. B5  1.3 fold
18. B12  1.4 fold
19. B17  1.4 fold
20. B1  1.7 fold
